According to patent publication US20260193342A1 (ZOETIS SERVICES, published 2026):

What was measured:
[1] = target: T1, canine FcRn complex (FcRn-α subunit and β-microglobulin) (canine, UniProt A0A8I3PFR8 25-347, biotin on the BAP tag by BirA (Example 5 only)); test: SPR (Biacore), biotinylated FcRn on SA chip, IgG flowed, pH 7.4, 15 C
[2] = target: T1, canine FcRn complex (FcRn-α subunit and …); test: SPR (Biacore), biotinylated FcRn on SA chip, IgG flowed, pH 6, 15 C
[3] = target: T1, canine FcRn complex (FcRn-α subunit and …); test: SPR (Biacore), biotinylated FcRn on SA chip, IgG flowed, pH 7.4, 15 C; remark: listed apart in the source
[4] = target: T1, canine FcRn complex (FcRn-α subunit and …); test: SPR (Biacore), biotinylated FcRn on SA chip, IgG flowed, pH 6, 15 C; remark: listed apart in the source

T1 sequence (A0A8I3PFR8 entry or part of it, one chain of several): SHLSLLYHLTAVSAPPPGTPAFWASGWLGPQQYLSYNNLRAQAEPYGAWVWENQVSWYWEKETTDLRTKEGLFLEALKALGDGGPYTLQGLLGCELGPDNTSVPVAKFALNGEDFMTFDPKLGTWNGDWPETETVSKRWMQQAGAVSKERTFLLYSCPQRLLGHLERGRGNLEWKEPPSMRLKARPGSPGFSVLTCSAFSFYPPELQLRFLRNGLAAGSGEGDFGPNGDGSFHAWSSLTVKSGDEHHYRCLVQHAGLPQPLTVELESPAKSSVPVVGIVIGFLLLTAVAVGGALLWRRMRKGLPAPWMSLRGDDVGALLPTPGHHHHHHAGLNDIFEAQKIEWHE

| Kd [1] [nM] | Kd [2] [nM] | Kd [3] [nM] | Kd [4] [nM] | Binder |
| --- | --- | --- | --- | --- |
| 997 | 14.3 | – | – | mAb1, caninized anti-IL31 antibody 34D03, canine IgGB, N434L (antibody, VH/VL: the caninized 34D03 entries of the listing; also called ID No. 14; copies: 2 + 2) heavy: EVQLVESGGDLVKPGGSLRLSCVASGFTFSNYGMSWVRQAPGKGLQWVATISYGGSYTYYPDNIKGRFTISRDNAKNTLYLQMNSLRAEDTAMYYCVRGYGYDTMDYWGQGTLVTVSSASTTAPSVFPLAPSCGSTSGSTVALACLVSGYFPEPVTVSWNSGSLTSGVHTFPSVLQSSGLYSLSSMVTVPSSRWPSETFTCNVAHPASKTKVDKPVPKRENGRVPRPPDCPKCPAPEMLGGPSVFIFPPKPKDTLLIARTPEVTCVVVDLDPEDPEVQISWFVDGKQMQTAKTQPREEQFNGTYRVVSVLPIGHQDWLKGKQFTCKVNNKALPSPIERTISKARGQAHQPSVYVLPPSREELSKNTVSLTCLIKDFFPPDIDVEWQSNGQQEPESKYRTTPPQLDEDGSYFLYSKLSVDKSRWQRGDTFICAVMHEALHLHYTQESLSHSPGK light: EIVMTQSPASLSLSQEEKVTITCKASQSVSFAGTGLMHWYQQKPGQAPKLLIYRASNLEAGVPSRFSGSGSGTDFSFTISSLEPEDVAVYYCQQSREYPWTFGQGTKLEIKRNDAQPAVYLFQPSPDQLHTGSASVVCLLNSFYPKDINVKWKVDGVIQDTGIQESVTEQDKDSTYSLSSTLTMSSTEYLSHELYSCEITHKSLPSTLIKSFQRSEC |
| – | – | 6960 | 20.2 | mAb1, caninized anti-IL31 antibody 34D03, canine IgGB, N434S (antibody, VH/VL: the caninized 34D03 entries of the listing; also called ID No. 18; copies: 2 + 2) heavy: EVQLVESGGDLVKPGGSLRLSCVASGFTFSNYGMSWVRQAPGKGLQWVATISYGGSYTYYPDNIKGRFTISRDNAKNTLYLQMNSLRAEDTAMYYCVRGYGYDTMDYWGQGTLVTVSSASTTAPSVFPLAPSCGSTSGSTVALACLVSGYFPEPVTVSWNSGSLTSGVHTFPSVLQSSGLYSLSSMVTVPSSRWPSETFTCNVAHPASKTKVDKPVPKRENGRVPRPPDCPKCPAPEMLGGPSVFIFPPKPKDTLLIARTPEVTCVVVDLDPEDPEVQISWFVDGKQMQTAKTQPREEQFNGTYRVVSVLPIGHQDWLKGKQFTCKVNNKALPSPIERTISKARGQAHQPSVYVLPPSREELSKNTVSLTCLIKDFFPPDIDVEWQSNGQQEPESKYRTTPPQLDEDGSYFLYSKLSVDKSRWQRGDTFICAVMHEALHSHYTQESLSHSPGK light: EIVMTQSPASLSLSQEEKVTITCKASQSVSFAGTGLMHWYQQKPGQAPKLLIYRASNLEAGVPSRFSGSGSGTDFSFTISSLEPEDVAVYYCQQSREYPWTFGQGTKLEIKRNDAQPAVYLFQPSPDQLHTGSASVVCLLNSFYPKDINVKWKVDGVIQDTGIQESVTEQDKDSTYSLSSTLTMSSTEYLSHELYSCEITHKSLPSTLIKSFQRSEC |
| – | – | 3.11 | 0.906 | mAb1, caninized anti-IL31 antibody 34D03, canine IgGB, N434R (antibody, VH/VL: the caninized 34D03 entries of the listing; also called ID No. 17; copies: 2 + 2) heavy: EVQLVESGGDLVKPGGSLRLSCVASGFTFSNYGMSWVRQAPGKGLQWVATISYGGSYTYYPDNIKGRFTISRDNAKNTLYLQMNSLRAEDTAMYYCVRGYGYDTMDYWGQGTLVTVSSASTTAPSVFPLAPSCGSTSGSTVALACLVSGYFPEPVTVSWNSGSLTSGVHTFPSVLQSSGLYSLSSMVTVPSSRWPSETFTCNVAHPASKTKVDKPVPKRENGRVPRPPDCPKCPAPEMLGGPSVFIFPPKPKDTLLIARTPEVTCVVVDLDPEDPEVQISWFVDGKQMQTAKTQPREEQFNGTYRVVSVLPIGHQDWLKGKQFTCKVNNKALPSPIERTISKARGQAHQPSVYVLPPSREELSKNTVSLTCLIKDFFPPDIDVEWQSNGQQEPESKYRTTPPQLDEDGSYFLYSKLSVDKSRWQRGDTFICAVMHEALHRHYTQESLSHSPGK light: EIVMTQSPASLSLSQEEKVTITCKASQSVSFAGTGLMHWYQQKPGQAPKLLIYRASNLEAGVPSRFSGSGSGTDFSFTISSLEPEDVAVYYCQQSREYPWTFGQGTKLEIKRNDAQPAVYLFQPSPDQLHTGSASVVCLLNSFYPKDINVKWKVDGVIQDTGIQESVTEQDKDSTYSLSSTLTMSSTEYLSHELYSCEITHKSLPSTLIKSFQRSEC |
| – | – | 21.8 | 5.91 | mAb1, caninized anti-IL31 antibody 34D03, canine IgGB, N434Q (antibody, VH/VL: the caninized 34D03 entries of the listing; also called ID No. 16; copies: 2 + 2) heavy: EVQLVESGGDLVKPGGSLRLSCVASGFTFSNYGMSWVRQAPGKGLQWVATISYGGSYTYYPDNIKGRFTISRDNAKNTLYLQMNSLRAEDTAMYYCVRGYGYDTMDYWGQGTLVTVSSASTTAPSVFPLAPSCGSTSGSTVALACLVSGYFPEPVTVSWNSGSLTSGVHTFPSVLQSSGLYSLSSMVTVPSSRWPSETFTCNVAHPASKTKVDKPVPKRENGRVPRPPDCPKCPAPEMLGGPSVFIFPPKPKDTLLIARTPEVTCVVVDLDPEDPEVQISWFVDGKQMQTAKTQPREEQFNGTYRVVSVLPIGHQDWLKGKQFTCKVNNKALPSPIERTISKARGQAHQPSVYVLPPSREELSKNTVSLTCLIKDFFPPDIDVEWQSNGQQEPESKYRTTPPQLDEDGSYFLYSKLSVDKSRWQRGDTFICAVMHEALHQHYTQESLSHSPGK light: EIVMTQSPASLSLSQEEKVTITCKASQSVSFAGTGLMHWYQQKPGQAPKLLIYRASNLEAGVPSRFSGSGSGTDFSFTISSLEPEDVAVYYCQQSREYPWTFGQGTKLEIKRNDAQPAVYLFQPSPDQLHTGSASVVCLLNSFYPKDINVKWKVDGVIQDTGIQESVTEQDKDSTYSLSSTLTMSSTEYLSHELYSCEITHKSLPSTLIKSFQRSEC |
| – | – | 554 | 34.2 | mAb1, caninized anti-IL31 antibody 34D03, canine IgGB, N434T (antibody, VH/VL: the caninized 34D03 entries of the listing; also called ID No. 19; copies: 2 + 2) heavy: EVQLVESGGDLVKPGGSLRLSCVASGFTFSNYGMSWVRQAPGKGLQWVATISYGGSYTYYPDNIKGRFTISRDNAKNTLYLQMNSLRAEDTAMYYCVRGYGYDTMDYWGQGTLVTVSSASTTAPSVFPLAPSCGSTSGSTVALACLVSGYFPEPVTVSWNSGSLTSGVHTFPSVLQSSGLYSLSSMVTVPSSRWPSETFTCNVAHPASKTKVDKPVPKRENGRVPRPPDCPKCPAPEMLGGPSVFIFPPKPKDTLLIARTPEVTCVVVDLDPEDPEVQISWFVDGKQMQTAKTQPREEQFNGTYRVVSVLPIGHQDWLKGKQFTCKVNNKALPSPIERTISKARGQAHQPSVYVLPPSREELSKNTVSLTCLIKDFFPPDIDVEWQSNGQQEPESKYRTTPPQLDEDGSYFLYSKLSVDKSRWQRGDTFICAVMHEALHTHYTQESLSHSPGK light: EIVMTQSPASLSLSQEEKVTITCKASQSVSFAGTGLMHWYQQKPGQAPKLLIYRASNLEAGVPSRFSGSGSGTDFSFTISSLEPEDVAVYYCQQSREYPWTFGQGTKLEIKRNDAQPAVYLFQPSPDQLHTGSASVVCLLNSFYPKDINVKWKVDGVIQDTGIQESVTEQDKDSTYSLSSTLTMSSTEYLSHELYSCEITHKSLPSTLIKSFQRSEC |
| – | – | 25300 | 1.98 | mAb1, caninized anti-IL31 antibody 34D03, canine IgGB, N434W (antibody, VH/VL: the caninized 34D03 entries of the listing; also called ID No. 21; copies: 2 + 2) heavy: EVQLVESGGDLVKPGGSLRLSCVASGFTFSNYGMSWVRQAPGKGLQWVATISYGGSYTYYPDNIKGRFTISRDNAKNTLYLQMNSLRAEDTAMYYCVRGYGYDTMDYWGQGTLVTVSSASTTAPSVFPLAPSCGSTSGSTVALACLVSGYFPEPVTVSWNSGSLTSGVHTFPSVLQSSGLYSLSSMVTVPSSRWPSETFTCNVAHPASKTKVDKPVPKRENGRVPRPPDCPKCPAPEMLGGPSVFIFPPKPKDTLLIARTPEVTCVVVDLDPEDPEVQISWFVDGKQMQTAKTQPREEQFNGTYRVVSVLPIGHQDWLKGKQFTCKVNNKALPSPIERTISKARGQAHQPSVYVLPPSREELSKNTVSLTCLIKDFFPPDIDVEWQSNGQQEPESKYRTTPPQLDEDGSYFLYSKLSVDKSRWQRGDTFICAVMHEALHWHYTQESLSHSPGK light: EIVMTQSPASLSLSQEEKVTITCKASQSVSFAGTGLMHWYQQKPGQAPKLLIYRASNLEAGVPSRFSGSGSGTDFSFTISSLEPEDVAVYYCQQSREYPWTFGQGTKLEIKRNDAQPAVYLFQPSPDQLHTGSASVVCLLNSFYPKDINVKWKVDGVIQDTGIQESVTEQDKDSTYSLSSTLTMSSTEYLSHELYSCEITHKSLPSTLIKSFQRSEC |
| – | – | 2750 | 6.16 | mAb1, caninized anti-IL31 antibody 34D03, canine IgGB, N434V (antibody, VH/VL: the caninized 34D03 entries of the listing; also called ID No. 20; copies: 2 + 2) heavy: EVQLVESGGDLVKPGGSLRLSCVASGFTFSNYGMSWVRQAPGKGLQWVATISYGGSYTYYPDNIKGRFTISRDNAKNTLYLQMNSLRAEDTAMYYCVRGYGYDTMDYWGQGTLVTVSSASTTAPSVFPLAPSCGSTSGSTVALACLVSGYFPEPVTVSWNSGSLTSGVHTFPSVLQSSGLYSLSSMVTVPSSRWPSETFTCNVAHPASKTKVDKPVPKRENGRVPRPPDCPKCPAPEMLGGPSVFIFPPKPKDTLLIARTPEVTCVVVDLDPEDPEVQISWFVDGKQMQTAKTQPREEQFNGTYRVVSVLPIGHQDWLKGKQFTCKVNNKALPSPIERTISKARGQAHQPSVYVLPPSREELSKNTVSLTCLIKDFFPPDIDVEWQSNGQQEPESKYRTTPPQLDEDGSYFLYSKLSVDKSRWQRGDTFICAVMHEALHVHYTQESLSHSPGK light: EIVMTQSPASLSLSQEEKVTITCKASQSVSFAGTGLMHWYQQKPGQAPKLLIYRASNLEAGVPSRFSGSGSGTDFSFTISSLEPEDVAVYYCQQSREYPWTFGQGTKLEIKRNDAQPAVYLFQPSPDQLHTGSASVVCLLNSFYPKDINVKWKVDGVIQDTGIQESVTEQDKDSTYSLSSTLTMSSTEYLSHELYSCEITHKSLPSTLIKSFQRSEC |
| – | – | 146000 | 14.2 | mAb1, caninized anti-IL31 antibody 34D03, canine IgGB, N434M (antibody, VH/VL: the caninized 34D03 entries of the listing; also called ID No. 15; copies: 2 + 2) heavy: EVQLVESGGDLVKPGGSLRLSCVASGFTFSNYGMSWVRQAPGKGLQWVATISYGGSYTYYPDNIKGRFTISRDNAKNTLYLQMNSLRAEDTAMYYCVRGYGYDTMDYWGQGTLVTVSSASTTAPSVFPLAPSCGSTSGSTVALACLVSGYFPEPVTVSWNSGSLTSGVHTFPSVLQSSGLYSLSSMVTVPSSRWPSETFTCNVAHPASKTKVDKPVPKRENGRVPRPPDCPKCPAPEMLGGPSVFIFPPKPKDTLLIARTPEVTCVVVDLDPEDPEVQISWFVDGKQMQTAKTQPREEQFNGTYRVVSVLPIGHQDWLKGKQFTCKVNNKALPSPIERTISKARGQAHQPSVYVLPPSREELSKNTVSLTCLIKDFFPPDIDVEWQSNGQQEPESKYRTTPPQLDEDGSYFLYSKLSVDKSRWQRGDTFICAVMHEALHMHYTQESLSHSPGK light: EIVMTQSPASLSLSQEEKVTITCKASQSVSFAGTGLMHWYQQKPGQAPKLLIYRASNLEAGVPSRFSGSGSGTDFSFTISSLEPEDVAVYYCQQSREYPWTFGQGTKLEIKRNDAQPAVYLFQPSPDQLHTGSASVVCLLNSFYPKDINVKWKVDGVIQDTGIQESVTEQDKDSTYSLSSTLTMSSTEYLSHELYSCEITHKSLPSTLIKSFQRSEC |
